Data reported in article PMC6881172, “Allosteric modulation of nucleoporin assemblies by intrinsically disordered regions” (Science Advances, 2019).
Several values for one entry are separate records, joined by “and”; a condition that tells them apart may be missing. Equal entries are not always repeated. Each block holds one molecule with its values, some of them ahead of it.

B3: Nup53 fragment 53CTD (domain or fragment)
chain: RNAEFKVSKNSTSFKNPRRLEIKDGRSLFLRNRGKIHS
B5: Nup53 53core (near-intact Nup53 construct encompassing the N- and C-terminal IDRs and the RRM domain) (domain or fragment)
chain: SDLGTVVFDSNEAPPKTSLADWQKEDGIFSSKTDNIEDPNLSSNITFDGKPTATPSPFRPLEKTSRILNFFDKNTKTTPNTASSEASAGSKEGASTNWDDHAIIIFGYPETIANSIILHFANFGEILEDFRVIKDFKKLNSKNMSKSPSLTAQKYPIYTGDGWVKLTYKSELSKSRALQENGIIMNGTLIGCVSYSPAALKQLASLKKSEEIINNKTSSQTSLSSKDLSNYRKTEGIFEKAKAKAVTSKVRNAEFKVSKNSTSFKNPRRLEIKDGRSLFLRNRGKIHS

Assays:
[1] = biological target: human Nup35 RRM domain (human); test: SEC-MALS; human Nup35 RRM domain at 15 mg/ml on Superdex 200 10/300 GL in the ITC binding buffer, room temperature
Nup53 fragment 53CTD = biological target: B3; test: ITC; single titrations, single-site 1:1 binding model where fitted; 20 mM Hepes pH 7.5, 150 mM NaCl, 0.5 mM TCEP; 15°C; Kap121 150 μM with Nup53 fragments 15 μM; conditions: both partners purified
[2] = biological target: B5; test: as above; conditions: both partners purified
[3] = biological target: T1, 53core·Kap121 complex (stoichiometric 53core:Kap121 mixture) (Saccharomyces cerevisiae, UniProt Q03790 1-475; P32337 1-1089); test: ITC; Nic96 titrated into stoichiometric 53core:Kap121 or 53core:HsKapβ1 mixtures; single-site 1:1 model; apparent constants; 15°C; conditions: both partners purified
[4] = biological target: 53core·HsKapβ1 complex (stoichiometric 53core:HsKapβ1 mixture) (Saccharomyces cerevisiae | human, UniProt Q03790 1-475; Q14974 1-876); test: as above; conditions: both partners purified
53core·HsKapβ1 complex (stoichiometric 53core:HsKapβ1 mixture), sequence (Q14974 1-442, one chain of several): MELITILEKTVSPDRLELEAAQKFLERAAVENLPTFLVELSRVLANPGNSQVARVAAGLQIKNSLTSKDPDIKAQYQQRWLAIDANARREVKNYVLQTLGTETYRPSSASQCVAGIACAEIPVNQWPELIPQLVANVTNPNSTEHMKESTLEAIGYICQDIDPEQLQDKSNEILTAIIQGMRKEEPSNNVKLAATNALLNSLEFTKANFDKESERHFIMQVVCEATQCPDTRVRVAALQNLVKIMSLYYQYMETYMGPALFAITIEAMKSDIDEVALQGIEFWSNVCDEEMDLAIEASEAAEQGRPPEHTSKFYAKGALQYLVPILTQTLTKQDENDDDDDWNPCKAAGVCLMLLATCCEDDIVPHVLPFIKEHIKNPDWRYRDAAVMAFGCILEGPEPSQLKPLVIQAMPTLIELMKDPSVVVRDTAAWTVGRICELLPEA

[5] = biological target: T2, Nup53 fragment 53NTD (N-terminal IDR) (Saccharomyces cerevisiae); test: ITC; single titrations, single-site 1:1 binding model where fitted; 20 mM Hepes pH 7.5, 150 mM NaCl, 0.5 mM TCEP; 15°C; Kap121 150 μM with Nup53 fragments 15 μM; conditions: both partners purified
T2 chain: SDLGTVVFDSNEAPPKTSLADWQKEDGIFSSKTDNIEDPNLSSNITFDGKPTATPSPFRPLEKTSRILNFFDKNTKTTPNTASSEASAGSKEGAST

[6] = biological target: T1, 53core·Kap121 complex (stoichiometric …); test: ITC; Nic96 titrations into 53core:Kap121 mixtures, global analysis with a multiple-equilibrium model that separates monomeric and dimeric 53core·Kap121 complexes; 15°C; conditions: both partners purified
Kap121 (full-length) [7] = biological target: T3, Kap121 (full-length) (Saccharomyces cerevisiae, UniProt P32337 1-1089); test: ITC; single titrations, single-site 1:1 binding model where fitted; 20 mM Hepes pH 7.5, 150 mM NaCl, 0.5 mM TCEP; 15°C; Kap121 150 μM with Nup53 fragments 15 μM; conditions: both partners purified
T3 construct: Kap121 (karyopherin), Saccharomyces cerevisiae, full-length; source: E. coli BL21-CodonPlus(DE3)-RIL, purified (HisTrap HP, TEV cleavage, HiTrap Q, Superdex 200); not shown: SUMO-His6, N-terminal, cleaved
T3 sequence (looked up): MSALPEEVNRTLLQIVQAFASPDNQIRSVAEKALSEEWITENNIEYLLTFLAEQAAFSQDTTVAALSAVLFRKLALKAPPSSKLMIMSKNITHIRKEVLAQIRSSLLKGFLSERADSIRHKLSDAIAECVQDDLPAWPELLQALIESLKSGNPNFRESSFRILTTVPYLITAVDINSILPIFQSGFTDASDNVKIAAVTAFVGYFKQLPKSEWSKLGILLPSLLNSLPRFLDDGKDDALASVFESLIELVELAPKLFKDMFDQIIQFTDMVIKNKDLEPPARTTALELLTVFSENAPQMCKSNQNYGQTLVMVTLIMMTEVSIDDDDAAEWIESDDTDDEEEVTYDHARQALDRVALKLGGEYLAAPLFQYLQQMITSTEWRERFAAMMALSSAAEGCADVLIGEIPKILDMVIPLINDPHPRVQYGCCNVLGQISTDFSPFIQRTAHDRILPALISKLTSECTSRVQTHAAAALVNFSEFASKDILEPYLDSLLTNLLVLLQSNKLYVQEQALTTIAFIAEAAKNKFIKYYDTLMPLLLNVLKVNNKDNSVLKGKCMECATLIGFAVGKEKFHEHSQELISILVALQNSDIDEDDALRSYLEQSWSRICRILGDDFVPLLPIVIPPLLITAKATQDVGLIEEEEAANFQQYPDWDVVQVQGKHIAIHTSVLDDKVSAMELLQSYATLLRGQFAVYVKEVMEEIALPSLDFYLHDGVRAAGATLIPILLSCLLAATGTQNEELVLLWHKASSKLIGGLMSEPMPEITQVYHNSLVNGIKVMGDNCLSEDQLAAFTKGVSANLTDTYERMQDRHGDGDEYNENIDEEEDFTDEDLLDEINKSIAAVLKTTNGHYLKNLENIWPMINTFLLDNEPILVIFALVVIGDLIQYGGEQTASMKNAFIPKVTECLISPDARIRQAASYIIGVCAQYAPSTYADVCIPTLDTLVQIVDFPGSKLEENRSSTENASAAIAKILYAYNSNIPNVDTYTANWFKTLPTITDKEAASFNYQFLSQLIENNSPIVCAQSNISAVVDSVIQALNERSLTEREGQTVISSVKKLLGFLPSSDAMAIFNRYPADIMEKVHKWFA

[8] = biological target: T4, Kap121 (full-length) (Saccharomyces cerevisiae), P32337; test: ITC; 53C·Kap121 forward and reverse titrations at various protein concentrations, global analysis with a two-mode binding model (1:1 and 2:1 53C:Kap121); 20 mM Hepes pH 7.5, 150 mM NaCl, 0.5 mM TCEP; 15°C
T4 chain: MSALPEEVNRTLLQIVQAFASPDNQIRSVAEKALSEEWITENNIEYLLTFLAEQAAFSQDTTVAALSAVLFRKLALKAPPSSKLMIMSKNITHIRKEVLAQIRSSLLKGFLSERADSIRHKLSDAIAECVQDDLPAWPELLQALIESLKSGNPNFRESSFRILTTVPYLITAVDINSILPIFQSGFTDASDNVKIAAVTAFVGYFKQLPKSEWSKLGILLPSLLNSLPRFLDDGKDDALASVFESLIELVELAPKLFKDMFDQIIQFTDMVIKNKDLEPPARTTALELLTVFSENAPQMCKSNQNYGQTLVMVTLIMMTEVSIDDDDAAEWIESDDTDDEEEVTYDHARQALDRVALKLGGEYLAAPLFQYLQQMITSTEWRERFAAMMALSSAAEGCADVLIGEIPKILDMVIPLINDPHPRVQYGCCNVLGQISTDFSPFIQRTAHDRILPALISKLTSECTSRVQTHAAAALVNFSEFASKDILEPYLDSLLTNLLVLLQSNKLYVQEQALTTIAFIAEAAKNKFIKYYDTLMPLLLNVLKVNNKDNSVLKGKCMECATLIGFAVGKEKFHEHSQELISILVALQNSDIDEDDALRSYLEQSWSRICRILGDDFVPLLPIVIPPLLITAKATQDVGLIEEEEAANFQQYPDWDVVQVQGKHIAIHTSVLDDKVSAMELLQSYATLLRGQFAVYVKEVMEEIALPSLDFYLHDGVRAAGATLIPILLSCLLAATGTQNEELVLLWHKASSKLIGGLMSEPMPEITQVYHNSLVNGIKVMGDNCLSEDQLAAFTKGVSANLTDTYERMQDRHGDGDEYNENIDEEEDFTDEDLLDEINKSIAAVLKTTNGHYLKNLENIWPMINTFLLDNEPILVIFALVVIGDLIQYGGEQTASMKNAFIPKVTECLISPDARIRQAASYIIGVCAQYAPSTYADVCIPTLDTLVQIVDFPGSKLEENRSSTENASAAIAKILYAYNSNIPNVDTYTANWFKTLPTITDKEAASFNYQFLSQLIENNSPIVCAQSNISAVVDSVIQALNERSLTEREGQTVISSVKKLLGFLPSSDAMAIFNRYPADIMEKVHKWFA

[9] = biological target: the molecule itself; test: ITC; dimer to monomers: concentrated 53core injected in 2-μl increments into buffer, three protein concentrations, monomer-dimer equilibrium model; constant printed for 2A ↔ A2; 15°C
[10] = biological target: the molecule itself; test: as above; remark: listed apart in the source
Kap121 (full-length) [11] = biological target: T3, Kap121 (full-length); test: ITC; forward and reverse titrations with Kap121 at various protein concentrations, global analysis with a multiple-equilibrium model (53core dimerization, monomer constants fixed at the 53C values); 15°C; conditions: both partners purified

stoichiometry N [1]: 2
Molecule: human Nup35 RRM domain (domain or fragment)

Ka (Nup53 fragment 53CTD): 1.6e+06 M⁻¹ | stoichiometry N (Nup53 fragment 53CTD): 1 | Ka [2]: 1.1e+06 M⁻¹ | dH [2]: -10.1 kcal/mol
B1: Nup157 fragment 157N (domain or fragment)
chain: MYSTPLKKRIDYDRETFTASASLGGNRLRNRPRDDQNNGKPNLSSRSFLSERKTRKDVLNKYGEAGNTIESELRDVTTHVKISGLTSSEPLQLASEFVQDLSFRDRNTPILDNPDYYSKGLDYNFSDEVGGLGAFTPFQRQQVTNIPDEVLSQVSNTEIKSDMGIFLELNYCWITSDNKLILWNINNSSEYHCIDEIEHTILKVKLVKPSPNTFVSSVENLLIVATLFDIYILTISFNDRTHELNIFNTGLKVNVTGFNVSNIISYERTGQIFFTGATDGVNVWELQYNCSENLFNSKSNKICLTKSNLANLLPTKLIPSIPGGKLIQKVLEGDAGTEEETISQLEVDQSRGVLHTLSTKSIVRSYLITSNGLVGPVLIDAAHIRRGMNALGVKNSPLLSNRAFKIAKIVSISMCENNDLFLAVITTTGVRLYFKGSISRRSIGSLKLDSVKFPPTSISSSLEQNKSFIIGHHPLNTHDTGPLSTQKASSTYINTTCASTIISPGIYFTCVRKRANSGELSKGITNKALLENKEEHKLYVSAPDYGILKNYGKYVENTALLDTTDEIKEIVPLTRSFNYTSTPQGYANVFASQYSAEPLKVAVLTSNALEIYCYRTPDEVFESLIENPLPFIHSYGLSEACSTALYLACKFNKSEHIKSSALAFFSAGIPGVVEIKPKSSRESGSVPPISQNLFDKSGECDGIVLSPRFYGSALLITRLFSQIWEERVFVFKRASKTEKMDAFGISITRPQVEYYLSSISVLADFFNIHRPSFVSFVPPKGSNAITASDAESIAMNALILLINSIKDALSLINVFYEDIDAFKSLLNTLMGAGGVYDSKTREYFFDLKFHDLFTPNAKTKQLIKEILIEVVNANIASGTSADYIVNVLKERFG

Ka [3]: 130000 M⁻¹ | dH [3]: -5.2 kcal/mol | Ka [4]: 100000 M⁻¹ | dH [4]: -5.1 kcal/mol | Ka [5]: 700000 M⁻¹ | stoichiometry N [5]: 1 | KA for the dimeric 53core·Kap121 complexes (A2Bi + C ↔ A2BiC) [6]: 120000 M⁻¹ | KA for the monomeric 53core·Kap121 complex (AB + C ↔ ABC) [6]: 200000 M⁻¹ | dH for the dimeric 53core·Kap121 complexes (A2Bi + C ↔ A2BiC) [6]: -2.5 kcal/mol | dH for the monomeric 53core·Kap121 complex (AB + C ↔ ABC) [6]: -6.7 kcal/mol | Ka [2]: 990000 M⁻¹ | dH [2]: -4.4 kcal/mol
B2: Nic96 fragment (domain or fragment)
chain: GNNILNSNESRLNVNENNILREKFENYARIVFQFNNSRQANGNFDIANEFISILSSANGTRNAQLLESWKILESMKSKDINIVEVGKQYLEQQFLQYTDNLYKKNMNEGLATNVNKIKSFIDTKLKKADKSWKISNLTVINGVPIWALIFYLLRAGLIKEALQVLVENKANIKKVEQSFLTYFKAYASSKDHGLPVEYSTKLHTEYNQHIKSSLDGDPYRLAVYKLIGRCDLSRKNIPAVTLSIEDWLWMHLMLIKEKDAENDPVYERYSLEDFQNIIISYGPSRFSNYYLQTLLLSGLYGLAIDYTYTFSEMDAVHLAIGLASLKLFKIDSSTRLTKKPKRDIRFANILANYTKSFRYSDPRVAVEYLVLITLNEGPTDVELCHEALRELVLETKEFTVLLGKIGRDGARIPGVIEERQPLLHVRDEKEFLHTITEQAARRADEDGRIYDSILLYQLAEEYDIVITLVNSLLSDTLSASDLDQPLVGPDDNSETNPVLLARRMASIYFDNAGISRQIHVKNKEICMLLLNISSIRELYFNKQWQETLSQMELLDLLPFSDELSARKKAQDFSNLDDNIVKNIPNLLIITLSCISNMIHILNESKYQSSTKGQQIDSLKNVARQCMIYAGMIQYRMPRETYSTLINIDVSL

Molecule: B3
Ka (Kap121 (full-length) [7]): 210000 M⁻¹ | fold weaker than the canonical NLS peptide (Kap121 (full-length) [7]): ~45 fold | stoichiometry N (Kap121 (full-length) [7]): 1

K of the 2:1 mode (2A + B ↔ A2*B) [8]: 1.9e+11 M^-2 | KA of the 1:1 mode (A + B ↔ AB) [8]: 4.2e+06 M⁻¹ | KA per IDR binding (square root of the 2:1 constant) [8]: 440000 M⁻¹ | dH of the 1:1 mode (A + B ↔ AB) [8]: -2.7 kcal/mol | dH of the 2:1 mode (2A + B ↔ A2*B) [8]: 4.2 kcal/mol | stoichiometry N [8]: 2 and 1
B4: Nup53 C-terminal IDR (53C) (domain or fragment)
chain: KKSEEIINNKTSSQTSLSSKDLSNYRKTEGIFEKAKAKAVTSKVRNAEFKVSKNSTSFKNPRRLEIKDGRSLFLRNRGKIHS
modifications: not checked

Molecule: B5
Ka [9]: 10000 M⁻¹ | dH [9]: 6.5 kcal/mol | stoichiometry N [10]: 2 | KA of the 53core dimer with one Kap121 (A2 + B ↔ A2B) (Kap121 (full-length) [11]): 5.6e+07 M⁻¹ | dH of A2 + 2B ↔ A2B2 (Kap121 (full-length) [11]): -1.3 kcal/mol | dH of A2 + B ↔ A2B (Kap121 (full-length) [11]): 16.3 kcal/mol
